Measurements from US20250340661A1 (JIANGSU HENGRUI PHARMACEUTICALS, published 2025).
Like-named read-outs stand apart in the source and are kept apart here.

B1: 2F12 human-rabbit chimeric anti-CD40 antibody (antibody, human IgG1, V domains shown)
VH: QSVKESEGGLFKPKDTLTLTCTVSGFSLSSYGVSWVRQAPGNGLEWIGGIGSDGSAYYASWAKSRATITRDTNLKTVTLEMTSLTAADTATYFCARGGITVYAMWGPGTLVTVSS
VL: AFELTQTPASVEAAMGGTVTIKCQASQSISNGLAWYQQKPGQPPKLLIVGASNLASGVSSRFKGSGSGTEFTLSISDLECADGATYYCQSYFSSSSTVFGGGTEVVVK
notes: Rabbit variable regions joined to human IgG1 constant region with N297A (Eu) and human kappa constant region
B2: humanized anti-CD40 antibody 2F12-L4H2 (antibody, human IgG1, kappa, N297A)
heavy: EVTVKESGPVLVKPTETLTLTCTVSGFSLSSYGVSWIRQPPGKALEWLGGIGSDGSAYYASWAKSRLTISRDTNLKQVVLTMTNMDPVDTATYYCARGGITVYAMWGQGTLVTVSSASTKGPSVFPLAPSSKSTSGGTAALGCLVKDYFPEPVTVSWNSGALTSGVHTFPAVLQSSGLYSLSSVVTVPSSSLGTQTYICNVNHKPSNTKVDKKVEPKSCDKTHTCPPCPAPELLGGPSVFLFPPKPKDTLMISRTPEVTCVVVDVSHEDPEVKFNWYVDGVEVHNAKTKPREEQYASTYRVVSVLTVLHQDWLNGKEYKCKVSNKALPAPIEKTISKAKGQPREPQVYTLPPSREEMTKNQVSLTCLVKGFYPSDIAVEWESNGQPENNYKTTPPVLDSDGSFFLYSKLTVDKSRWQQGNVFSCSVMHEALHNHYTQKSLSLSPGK
light: AFQLTQSPSSLSASVGDRVTITCQASQSISTGLAWYQQKPGKPPKLLIVGASNLASGVPSRFSGSGSGTDFTLTISSLQPEDFATYYCQSYFSSSSTVFGGGTKVEIKRTVAAPSVFIFPPSDEQLKSGTASVVCLLNNFYPREAKVQWKVDNALQSGNSQESVTEQDSKDSTYSLSSTLTLSKADYEKHKVYACEVTHQGLSSPVTKSFNRGEC
notes: human IgG1 N297A (Eu) heavy chain, human kappa light chain; 2F12-L4 light chain and 2F12-H2 heavy chain
B3: humanized anti-CD40 antibody 2F12-L4H2-AAYTE (antibody, human IgG1, kappa, L234A L235A)
heavy: EVTVKESGPVLVKPTETLTLTCTVSGFSLSSYGVSWIRQPPGKALEWLGGIGSDGSAYYASWAKSRLTISRDTNLKQVVLTMTNMDPVDTATYYCARGGITVYAMWGQGTLVTVSSASTKGPSVFPLAPSSKSTSGGTAALGCLVKDYFPEPVTVSWNSGALTSGVHTFPAVLQSSGLYSLSSVVTVPSSSLGTQTYICNVNHKPSNTKVDKKVEPKSCDKTHTCPPCPAPEAAGGPSVFLFPPKPKDTLYITREPEVTCVVVDVSHEDPEVKFNWYVDGVEVHNAKTKPREEQYNSTYRVVSVLTVLHQDWLNGKEYKCKVSNKALPAPIEKTISKAKGQPREPQVYTLPPSREEMTKNQVSLTCLVKGFYPSDIAVEWESNGQPENNYKTTPPVLDSDGSFFLYSKLTVDKSRWQQGNVFSCSVMHEALHNHYTQKSLSLSPGK
light: B2 light
notes: light chain unchanged from 2F12-L4H2
B4: humanized anti-CD40 antibody 9E6-L4H2 (antibody, human IgG1, kappa, N297A)
heavy: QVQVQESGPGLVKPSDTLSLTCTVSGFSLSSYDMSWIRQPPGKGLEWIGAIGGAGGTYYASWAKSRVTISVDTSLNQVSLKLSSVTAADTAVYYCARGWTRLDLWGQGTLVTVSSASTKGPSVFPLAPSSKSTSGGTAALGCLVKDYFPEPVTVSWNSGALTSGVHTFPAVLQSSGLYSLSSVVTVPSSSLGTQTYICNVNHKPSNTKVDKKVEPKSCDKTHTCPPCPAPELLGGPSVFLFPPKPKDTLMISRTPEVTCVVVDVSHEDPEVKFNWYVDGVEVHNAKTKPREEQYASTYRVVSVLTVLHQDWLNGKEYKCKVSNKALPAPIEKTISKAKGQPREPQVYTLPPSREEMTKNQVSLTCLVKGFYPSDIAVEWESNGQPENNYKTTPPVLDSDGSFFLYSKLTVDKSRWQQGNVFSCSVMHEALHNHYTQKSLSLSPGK
light: DIQLTQSPSFLSASVGDRVTITCQASEDISSNLAWYQQKPGKPPKLLIFPASNLASGVPSRFSGSGSGTEFTLTISSLQPEDFATYYCQGGYWTSTSNFGQGFGGGTKVEIKRTVAAPSVFIFPPSDEQLKSGTASVVCLLNNFYPREAKVQWKVDNALQSGNSQESVTEQDSKDSTYSLSSTLTLSKADYEKHKVYACEVTHQGLSSPVTKSFNRGEC
notes: human IgG1 N297A (Eu) heavy chain, human kappa light chain; 9E6-L4 light chain and 9E6-H2 heavy chain
B5: humanized anti-CD40 antibody 9E6-L4H2-AAYTE (antibody, human IgG1, kappa, L234A L235A)
heavy: QVQVQESGPGLVKPSDTLSLTCTVSGFSLSSYDMSWIRQPPGKGLEWIGAIGGAGGTYYASWAKSRVTISVDTSLNQVSLKLSSVTAADTAVYYCARGWTRLDLWGQGTLVTVSSASTKGPSVFPLAPSSKSTSGGTAALGCLVKDYFPEPVTVSWNSGALTSGVHTFPAVLQSSGLYSLSSVVTVPSSSLGTQTYICNVNHKPSNTKVDKKVEPKSCDKTHTCPPCPAPEAAGGPSVFLFPPKPKDTLYITREPEVTCVVVDVSHEDPEVKFNWYVDGVEVHNAKTKPREEQYNSTYRVVSVLTVLHQDWLNGKEYKCKVSNKALPAPIEKTISKAKGQPREPQVYTLPPSREEMTKNQVSLTCLVKGFYPSDIAVEWESNGQPENNYKTTPPVLDSDGSFFLYSKLTVDKSRWQQGNVFSCSVMHEALHNHYTQKSLSLSPGK
light: B4 light
notes: light chain unchanged from 9E6-L4H2
B6: 9E6 human-rabbit chimeric anti-CD40 antibody (antibody, human IgG1, V domains shown)
VH: QSVRESEGGLVKPTDTLTLTCTVSGFSLSSYDMSWVRQAPGNGLEWIGAIGGAGGTYYASWAKSRSTITRNTNLNTVTLKMSSLTAADTATYFCARGWTRLDLWGQGTLVTVSS
VL: DIVLTQTPSPVSGAVGGTVTIKCQASEDISSNLAWYQQKPGQPPKLLIFPASNLASGVSSRFKGSGSGTEFTLTISDLECADAATYYCQGGYWTSTSNFGNGFGGGTEVVVK

Experiments:
[1] = biological target: T1, human CD40 on the cell surface (human, UniProt P25942 21-277); test: flow cytometry on Raji cells, Alexa Fluor 488 anti-human IgG (H+L) detection
T1 construct: whole, on cells; also called Raji cell surface human CD40; human CD40 on HEK-Blue CD40L cells
T1 sequence (P25942 21-277): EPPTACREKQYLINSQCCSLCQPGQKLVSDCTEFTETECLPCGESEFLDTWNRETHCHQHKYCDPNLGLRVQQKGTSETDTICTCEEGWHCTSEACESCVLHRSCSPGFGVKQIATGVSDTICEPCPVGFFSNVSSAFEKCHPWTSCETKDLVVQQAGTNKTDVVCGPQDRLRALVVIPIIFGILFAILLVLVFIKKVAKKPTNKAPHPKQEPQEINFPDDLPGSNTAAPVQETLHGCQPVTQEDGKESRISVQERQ
Method: Raji cells were plated at 1.5E5/well, and various concentrations of CD40 antagonistic antibodies were added. The plate was incubated at 4° C. for 1 h. After two washes with FACS buffer (PBS+2% FBS), a secondary antibody (Alexa Flour488 conjugated anti-human IgG (H+L) antibody) was added, and the plate was incubated at 4° C. for 0.5 h.
After two washes with FACS buffer, the fluorescence intensity on the cell surface was measured by flow cytometry (BD FACS Celesta).

[2] = biological target: T1, human CD40 on the cell surface; test: flow cytometry on Raji cells, AF647 anti-human IgG detection
Method: Raji cells are of a tumor cell line that overexpresses human CD40. 2E5 Raji cells were inoculated onto a 96-well plate. 100 μL of a test antibody was added, with the highest final concentration of 100 nM. The antibody was 5-fold diluted to 8 concentrations. The plate was incubated at 4° C. for 1 h. […] The plate was incubated at 4° C. for 30 min. The plate was washed once with wash buffer, and fluorescence intensity was measured using a flow cytometer. The binding EC₅₀ values of the anti-CD40 antibodies for CD40 were calculated. The anti-CD40 antagonistic antibody CFZ533 (i.e., iscalimab, Nova) was used as a positive control, and the heavy and light chain variable region sequences were derived from sequence 5 and sequence 2 of U.S. Pat. No. 8,277,810B, respectively.

[3] = biological target: T1, human CD40 on the cell surface; test: cell-based or functional assay
[4] = biological target: T1, human CD40 on the cell surface; test: cell-based or functional assay; remark: listed apart in the source
[5] = biological target: T1, human CD40 on the cell surface; test: cell-based or functional assay; remark: listed apart in the source
[6] = biological target: T2, his-tagged cynomolgus monkey CD40 (cyno-CD40-his) recombinant protein (cynomolgus monkey); test: SPR (Biacore), antibody captured on anti-human Fc chip, His-tagged CD40 as analyte, 1:1 model
T2 construct: Bought from Acrobiosystems, Cat. #CD0-C52H6
Method: (§1) The test antibody was affinity-captured on an anti-human Fc chip, and a series of concentrations of His-tagged human or cynomolgus monkey CD40 antigen were allowed to flow over the chip surface. Reaction signals were detected in real time using a Biacore instrument, and thus binding and dissociation curves were obtained. The buffer used in the experiment was HBS-EP+10× buffer solution (Cat. #BR-1006-69, GE) diluted to 1× (pH 7.4) with D. I. Water. Fitting was performed on the data obtained from the experiment using a (1:1) Binding model to obtain affinity values. 9E6-L4H2 and 2F12-L4H2 have similar binding constants for human CD40 to CFZ533, 9E6-L4H2 has a stronger binding affinity for cynomolgus monkey CD40, and 2F12-L4H2 has a slightly weak binding affinity for cynomolgus monkey CD40.

[7] = biological target: T3, his-tagged human CD40 (h-CD40-his) recombinant protein (human, UniProt P25942 21-193); test: as above
T3 construct: Bought from Acrobiosystems, Cat. #CD0-H5228; also called His-tagged human CD40 antigen; not shown: His tag
T3 sequence (P25942 21-193 limits assumed): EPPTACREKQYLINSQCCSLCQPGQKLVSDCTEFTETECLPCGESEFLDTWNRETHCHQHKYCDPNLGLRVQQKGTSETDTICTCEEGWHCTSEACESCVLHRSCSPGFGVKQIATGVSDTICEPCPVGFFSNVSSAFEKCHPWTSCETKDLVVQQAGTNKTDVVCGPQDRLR
Method: as §1

human FcRn antigen = human FcRn antigen (human, UniProt P55899 24-297; P61769 21-119); test: SPR (Biacore), antibody captured on anti-human Fab chip, human FcRn as analyte, steady state model
Method: The test antibody was affinity-captured on an anti-human Fab chip, and a series of concentrations of human FcRn antigen (purchased from AcroBiosystem) were allowed to flow over the chip surface. Reaction signals where the reactions were in a steady state were detected in real time using a Biacore instrument. The buffer used in the experiment was HBS-EP+10× buffer solution (Cat. #BR-1006-69, GE) diluted to 1× (pH 7.4) with D. I. Water. Fitting was performed on the data obtained from the experiment using a steady state binding model to obtain affinity values. The anti-CD40 antibodies carrying the AAYTE mutation have a higher binding affinity for human FcRn than their parent antibodies.

[8] = biological target: T1, human CD40 on the cell surface; test: cell-based or functional assay; remark: listed apart in the source
[9] = biological target: T1, human CD40 on the cell surface; test: cell-based or functional assay; remark: listed apart in the source
[10] = biological target: T1, human CD40 on the cell surface; test: cell-based or functional assay; remark: listed apart in the source
[11] = biological target: T1, human CD40 on the cell surface; test: cell-based or functional assay; remark: listed apart in the source
[12] = biological target: T1, human CD40 on the cell surface; test: cell-based or functional assay; remark: listed apart in the source
[13] = biological target: T1, human CD40 on the cell surface; test: cell-based or functional assay; remark: listed apart in the source

EC50 [1] [nM]	EC50 [2] [nM]	reporter gene cell activity IC50 (HEK-Blue CD40L cells, SEAP) [3] [nM]	B cell activation assay, CD19+CD69+ % IC50 [4] [nM]	B cell activation assay, CD19+CD69+ MFI IC50 [4] [nM]	IC50 (read off the curve), CD40L-induced TNFα secretion by DC cells [5] [nM]	Kd [6] [nM]	koff [6] [s⁻¹]	kon [6] [M⁻¹ s⁻¹]	Kd [7] [nM]	koff [7] [s⁻¹]	kon [7] [M⁻¹ s⁻¹]	Kd (human FcRn antigen) [nM]	IC50 in DC cell activation assay system, CD80 MFI [8] [nM]	IC50 in DC cell activation assay system, CD86 MFI [8] [nM]	IC50 in DC cell activation assay system, IL-12/23 p40 [8] [nM]	IC50 in DC cell activation assay system, TNFα [8] [nM]	IC50 (read off the curve), CD40L-induced IL-12/23 p40 secretion by DC cells [9] [nM]	IC50 (read off the curve), CD40L-induced TNFα secretion by DC cells [11] [nM]	IC50 (read off the curve), CD40L-induced B cell activation (CD19+CD69+ MFI) [12] [nM]	further results	Binder
0.479	0.412	0.172	–	–	–	–	–	–	–	–	–	–	–	–	–	–	–	–	–	–	B1
0.589	–	–	0.04	0.03	~0.4	35.3	0.414	1.17e+07	2.71	0.00206	758000	279	0.78	0.52	0.68	0.3	~0.7	–	–	IC50 for the inhibition of CD40 reporter gene cell activity (Assay 1) [10]: 0.18 nM	B2
–	–	–	–	–	~0.3	–	–	–	–	–	–	44.2	–	–	–	–	~0.6	–	–	–	B3
0.87	–	–	0.14	0.07	–	0.121	6.23e-05	514000	0.536	0.000221	413000	293	3.44	3.72	1.85	0.7	–	~0.7	~0.2	IC50 (read off the curve), CD40L-induced IL-12/23 p40 secretion by DC cells [13]: 1 to 2 nM; IC50 for the inhibition of CD40 reporter gene cell activity (Assay 2) [10]: 0.5 nM	B4
–	–	–	–	–	–	–	–	–	–	–	–	39.8	–	–	–	–	–	~0.5	~0.2	IC50 (read off the curve), CD40L-induced IL-12/23 p40 secretion by DC cells [13]: ~1 nM	B5
0.895	0.608	0.221	–	–	–	–	–	–	–	–	–	–	–	–	–	–	–	–	–	–	B6
